Data from US8487076.

Tests used:
[1] = target: HLA-A2 molecule, product of the HLA-A*0201 gene, on JY cells (human); experiment: flow cytometry; acid-stripped JY cells reassociated with b2m and peptide dilutions, stained with labeled mAb BB7.2; settings: remark: other sources report otherwise
[2] = target: HLA-A24 molecule, product of the HLA-A*2402 gene, on C1R-A24 cells (human); experiment: flow cytometry; acid-stripped C1R-A24 cells reassociated with b2m and peptide dilutions, stained with labeled mAb 17A12; settings: remark: other sources report otherwise

| Binder | -log Kd (-log Kd (Kd in molar concentration)) [1] | -log Kd (-log Kd (Kd in molar concentration)) [2] |
| --- | --- | --- |
| TLPPAWQPF [SEQ ID NO 23 (…), HLA-A2-binding 9 amino acid peptide of survivin] | 5.36 |  |
| TLPPAWQPF [SEQ ID NO 1 (…), HLA-A24-binding 9 amino acid peptide of survivin] |  | 8.26 |
| FLKDHRISTF [SEQ ID NO 61 (…), HLA-A2-binding 10 amino acid peptide of survivin] | 5.53 |  |
| FLKDHRISTF [SEQ ID NO 44 (…), HLA-A24-binding 10 amino acid peptide of survivin] |  | 7.01 |
